Test results: the Human Domainome abundance scans (Beltran et al. 2025)
± gives the uncertainty stated by the source.

Experiment: abundance fitness (aPCA) (normalised: wild type 0, dead -1); higher = more abundant; growth selection in yeast, the domain comes from the species named
Details: Homo sapiens

For “SAFB-like transcription modulator D24A, Q9NWH9”, which abundance fitness is on record?
Its abundance fitness is -0.217 ± 0.033.

Which abundance fitness does the source give for “SAFB-like transcription modulator D24C, Q9NWH9” here?
Its abundance fitness is -0.226 ± 0.036.

For “SAFB-like transcription modulator D24E, Q9NWH9”, which abundance fitness is on record?
The abundance fitness was -0.003 ± 0.038.

With “SAFB-like transcription modulator D24F, Q9NWH9” as the substance, how does the abundance fitness read?
Its abundance fitness is -0.466 ± 0.033.

With “SAFB-like transcription modulator D24G, Q9NWH9” as the substance, how does the abundance fitness read?
Its abundance fitness is -0.282 ± 0.03.

For “SAFB-like transcription modulator D24H, Q9NWH9”, which abundance fitness is on record?
Its abundance fitness is -0.145 ± 0.034.

Which abundance fitness does the source give for “SAFB-like transcription modulator D24I, Q9NWH9” here?
The abundance fitness was -0.693 ± 0.035.

Which abundance fitness does the source give for “SAFB-like transcription modulator D24K, Q9NWH9” here?
The abundance fitness was -0.157 ± 0.034.

For “SAFB-like transcription modulator D24M, Q9NWH9”, which abundance fitness is on record?
The abundance fitness was -0.229 ± 0.036.

For “SAFB-like transcription modulator D24N, Q9NWH9”, which abundance fitness is on record?
Its abundance fitness is -0.098 ± 0.034.

For “SAFB-like transcription modulator D24P, Q9NWH9”, which abundance fitness is on record?
Its abundance fitness is -0.598 ± 0.033.

With “SAFB-like transcription modulator D24Q, Q9NWH9” as the substance, how does the abundance fitness read?
The abundance fitness was -0.076 ± 0.037.

Which abundance fitness does the source give for “SAFB-like transcription modulator D24R, Q9NWH9” here?
Its abundance fitness is -0.335 ± 0.033.

Which abundance fitness does the source give for “SAFB-like transcription modulator D24S, Q9NWH9” here?
The abundance fitness was -0.149 ± 0.032.

For “SAFB-like transcription modulator D24T, Q9NWH9”, which abundance fitness is on record?
The abundance fitness was -0.157 ± 0.033.

For “SAFB-like transcription modulator D24V, Q9NWH9”, which abundance fitness is on record?
Its abundance fitness is -0.547 ± 0.033.

With “SAFB-like transcription modulator D24W, Q9NWH9” as the substance, how does the abundance fitness read?
The abundance fitness was -0.484 ± 0.039.

Which abundance fitness does the source give for “SAFB-like transcription modulator D24Y, Q9NWH9” here?
The abundance fitness was -0.433 ± 0.034.

With “SAFB-like transcription modulator D29A, Q9NWH9” as the substance, how does the abundance fitness read?
The abundance fitness was -0.681 ± 0.25.

With “SAFB-like transcription modulator D29C, Q9NWH9” as the substance, how does the abundance fitness read?
The abundance fitness was -0.854 ± 0.22.

With “SAFB-like transcription modulator D29E, Q9NWH9” as the substance, how does the abundance fitness read?
Its abundance fitness is -0.5 ± 0.13.

With “SAFB-like transcription modulator D29G, Q9NWH9” as the substance, how does the abundance fitness read?
The abundance fitness was -0.725 ± 0.096.

Which abundance fitness does the source give for “SAFB-like transcription modulator D29I, Q9NWH9” here?
Its abundance fitness is -1.09 ± 0.43.

Which abundance fitness does the source give for “SAFB-like transcription modulator D29K, Q9NWH9” here?
Its abundance fitness is -1.06 ± 0.33.

For “SAFB-like transcription modulator D29M, Q9NWH9”, which abundance fitness is on record?
The abundance fitness was -0.081 ± 0.13.

Which abundance fitness does the source give for “SAFB-like transcription modulator D29N, Q9NWH9” here?
The abundance fitness was -0.483 ± 0.063.

Which abundance fitness does the source give for “SAFB-like transcription modulator D29P, Q9NWH9” here?
Its abundance fitness is -0.656 ± 0.097.

Which abundance fitness does the source give for “SAFB-like transcription modulator D29Q, Q9NWH9” here?
The abundance fitness was -0.084 ± 0.07.

Which abundance fitness does the source give for “SAFB-like transcription modulator D29S, Q9NWH9” here?
The abundance fitness was -0.755 ± 0.19.

Which abundance fitness does the source give for “SAFB-like transcription modulator D29T, Q9NWH9” here?
The abundance fitness was -0.509 ± 0.12.

With “SAFB-like transcription modulator D29V, Q9NWH9” as the substance, how does the abundance fitness read?
The abundance fitness was -0.717 ± 0.09.

For “SAFB-like transcription modulator D29W, Q9NWH9”, which abundance fitness is on record?
Its abundance fitness is -0.882 ± 0.18.

Which abundance fitness does the source give for “SAFB-like transcription modulator D29Y, Q9NWH9” here?
The abundance fitness was -0.677 ± 0.089.

For “SAFB-like transcription modulator D40A, Q9NWH9”, which abundance fitness is on record?
Its abundance fitness is -0.2 ± 0.046.

Which abundance fitness does the source give for “SAFB-like transcription modulator D40C, Q9NWH9” here?
Its abundance fitness is -0.594 ± 0.12.

For “SAFB-like transcription modulator D40E, Q9NWH9”, which abundance fitness is on record?
Its abundance fitness is -0.318 ± 0.086.

With “SAFB-like transcription modulator D40F, Q9NWH9” as the substance, how does the abundance fitness read?
The abundance fitness was -1 ± 0.39.

For “SAFB-like transcription modulator D40G, Q9NWH9”, which abundance fitness is on record?
The abundance fitness was -0.277 ± 0.069.

For “SAFB-like transcription modulator D40H, Q9NWH9”, which abundance fitness is on record?
The abundance fitness was -0.614 ± 0.24.

With “SAFB-like transcription modulator D40I, Q9NWH9” as the substance, how does the abundance fitness read?
Its abundance fitness is -0.357 ± 0.092.

Which abundance fitness does the source give for “SAFB-like transcription modulator D40K, Q9NWH9” here?
The abundance fitness was -0.322 ± 0.099.

For “SAFB-like transcription modulator D40L, Q9NWH9”, which abundance fitness is on record?
Its abundance fitness is -0.35 ± 0.066.

Which abundance fitness does the source give for “SAFB-like transcription modulator D40M, Q9NWH9” here?
Its abundance fitness is -0.377 ± 0.067.

With “SAFB-like transcription modulator D40Q, Q9NWH9” as the substance, how does the abundance fitness read?
The abundance fitness was -0.486 ± 0.12.

For “SAFB-like transcription modulator D40R, Q9NWH9”, which abundance fitness is on record?
Its abundance fitness is -0.354 ± 0.066.

With “SAFB-like transcription modulator D40S, Q9NWH9” as the substance, how does the abundance fitness read?
Its abundance fitness is -0.148 ± 0.062.

With “SAFB-like transcription modulator D40T, Q9NWH9” as the substance, how does the abundance fitness read?
Its abundance fitness is -0.375 ± 0.049.

For “SAFB-like transcription modulator D40V, Q9NWH9”, which abundance fitness is on record?
Its abundance fitness is -0.417 ± 0.072.

With “SAFB-like transcription modulator D62A, Q9NWH9” as the substance, how does the abundance fitness read?
The abundance fitness was -0.386 ± 0.045.

Which abundance fitness does the source give for “SAFB-like transcription modulator D62C, Q9NWH9” here?
Its abundance fitness is -0.198 ± 0.045.

For “SAFB-like transcription modulator D62E, Q9NWH9”, which abundance fitness is on record?
Its abundance fitness is -0.397 ± 0.047.
